The source of these data is paper PMC5523735.

The nature of data set [1]: proBNP/BNP ratio in human iPS-CM medium. Conditions: glycan lost; control: control oligo.
Data set [2] is described as follows: proBNP/BNP ratio in NRVM medium. As to conditions: glycan lost.
Data set [3] can be described thus: gel filtration: proBNP peak relative to mature BNP peak. Conditions: glycan lost; control: WT-proBNP.
Data set [4] in a line: proBNP/BNP ratio in cardiac fibroblast medium. Conditions: glycan lost; control: WT-proBNP.
Setting [5] is: control: control oligo, WT-proBNP.

Where two headings read alike, the source gives them in different places.

Take “human proBNP (prohormone for brain natriuretic peptide): GALNT1 siRNA”: the “other: proteolytic processing” value in data set [1] and in data set [2] (setting [5]) was “increases” in each case.
As for “human proBNP (prohormone for brain natriuretic peptide): GALNT2 siRNA”, the “other: proteolytic processing” value in data set [1] and in data set [2] (setting [5]) was “increases” each time.
Take “human proBNP (prohormone for brain natriuretic peptide): T48/T71glyco”: in data set [2] (control: WT-proBNP), the “other: proteolytic processing” value is “increases”.
“human proBNP (prohormone for brain natriuretic peptide): T48A”: the “other: proteolytic processing” value in data set [3], in data set [4] and in data set [2] (control: WT-proBNP) was “increases” each time.
For the substance “human proBNP (prohormone for brain natriuretic peptide): T48A/T71A”, the “other: proteolytic processing” value in data set [2] (control: WT-proBNP) was “increases”.
As for “human proBNP (prohormone for brain natriuretic peptide): T71A”, the “other: proteolytic processing” value in data set [3], in data set [4] and in data set [2] (control: WT-proBNP) was “increases” each time.
With “human proBNP (prohormone for brain natriuretic peptide): non-glyco”, in data set [2] (control: WT-proBNP), the “other: proteolytic processing” value is “increases”.
Turning to “proBNP (prohormone for brain natriuretic peptide): GALNT1 or GALNT2 siRNA knockdown”, the other entry by setting is: (O-glycosylation other at T48) “increases”; (O-glycosylation other at T71) “increases”.
As for “proBNP (prohormone for brain natriuretic peptide): T48/T71glyco (T36A, S37A, S44A, S53A, T58A)”, the other entry by setting is: (O-glycosylation other at S37) “increases”; (O-glycosylation other at S44) “increases”; (O-glycosylation other at S53) “increases”; (O-glycosylation other at T36) “increases”; (O-glycosylation other at T58) “increases”.
“proBNP (prohormone for brain natriuretic peptide): T48A”: for the setting “O-glycosylation other at T48”, the other result was “increases”.
Still for that read-out and setting: in the case of “proBNP (prohormone for brain natriuretic peptide): T48A (cardiac fibroblasts)” it was “increases”.
As for “proBNP (prohormone for brain natriuretic peptide): T48A/T71A”, the other result (O-glycosylation other at T48) is “increases” and the other entry (O-glycosylation other at T71) is “increases”.
Turning to “proBNP (prohormone for brain natriuretic peptide): T71A”, the other entry (O-glycosylation other at T71) was “increases”.
With “proBNP (prohormone for brain natriuretic peptide): T71A (cardiac fibroblasts)”, the other result (O-glycosylation other at T71) is “increases”.
As to “proBNP (prohormone for brain natriuretic peptide): non-glyco versus T48glyco (only Thr48 preserved, other 6 sites Ala)”, the other result (O-glycosylation other at T48) is listed as “increases”.
Turning to “proBNP (prohormone for brain natriuretic peptide): non-glyco versus T71glyco (only Thr71 preserved, other 6 sites Ala)”, the other result (O-glycosylation other at T71) was “increases”.
